Laboratory results as given in the supplement of paper PMC12042874.
± gives the uncertainty stated by the source.

Assay: amyloid nucleation score (Sup35N fusion, yeast selection) (log enrichment); library NNK3; higher = more nucleation; inactive = no reads after selection
In short: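 Nucleation score is defined as the DiMSum log enrichment of output over input reads, with centring on the mode score of non-aggregating sequences. A minimum of 100 input reads was required for each sequence. Reads came from Illumina sequencing of plasmid inserts from psi-negative yeast expressing Sup35N fused to peptides of 20 random codons, induced with 100 μM copper sulfate for 24 hours and grown 7 days at 30°C on medium lacking adenine and uracil.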
For TMSRRAARMQCAILVPSRLL, the amyloid nucleation score was “inactive”. For MQFEINRRVGHRSPNAYLE, the amyloid nucleation score was “inactive”. With WLWISMVYCHLKDIRIIVGN the amyloid nucleation score was “inactive”. LRLTIMSGIRVPVFYEHSFM showed an amyloid nucleation score of -0.443 ± 0.96. For MVQTKMSQFKSFEFARVMWH, the amyloid nucleation score was “inactive”. For PVHGSKGPSGHVCRQCGFLM, the amyloid nucleation score was “inactive”. With SPWYLNVAIGTAKGCLSFID the amyloid nucleation score was “inactive”. Substance VLSVSLNACTIGWST has an amyloid nucleation score of 1.34 ± 0.1. In the case of VFMIVRQEGSSDFFFDFSSV, the amyloid nucleation score is reported as 1.42 ± 0.11. With KMSSHFV the amyloid nucleation score was “inactive”. With VVRYPSMKE the amyloid nucleation score was “inactive”. In the case of CSIGRSTVDVRWGEGLWNRL, the amyloid nucleation score is reported as “inactive”. For LKYEERSGWWSLGSGVCGVV, the amyloid nucleation score was “inactive”. With NKVTLGYMFITSLVRTSS the amyloid nucleation score was 0.491 ± 0.15. For RHSFMRFRLSNWV, the amyloid nucleation score was “inactive”. With NQLYSWWRFYGLNS the amyloid nucleation score was “inactive”. With CPTVMAYGKTGG the amyloid nucleation score was 0.934 ± 0.21. For AQGKSRPYPLSNSPSGVRRS, the amyloid nucleation score was “inactive”. In the case of GLCHMFGYDFTSMNCSSPGA, the amyloid nucleation score is reported as “inactive”. NGFMDNCAVSCRTIIVVSYR gave an amyloid nucleation score of 2.59 ± 0.074. For CMVLDGRYNGWSISVWDARL, the amyloid nucleation score was “inactive”. For NHLVGLNMSISMCDSLNSVF, the amyloid nucleation score was “inactive”. For WCSGLPGLNRWSSTIPICCY, the amyloid nucleation score was “inactive”. With DDAKFVWYVNINYRYMDSRS the amyloid nucleation score was 2.16 ± 0.065. In the case of RKLWLMCYS, the amyloid nucleation score is reported as “inactive”. For RVLQKAPRWAMGFARW, the amyloid nucleation score was “inactive”. In the case of SFYLVYRGIFDISLTEFVL, the amyloid nucleation score is reported as “inactive”. With SPQGTVCNQSIFVALPLRVG the amyloid nucleation score was “inactive”. For QLLQVWVNMFKTTAISWIVF, the amyloid nucleation score was “inactive”. For TLWMGF, the amyloid nucleation score was “inactive”. For RSGSLIGAVYRNMVVLNRMG, the amyloid nucleation score was “inactive”. With FHGFLYSAFSSDG the amyloid nucleation score was “inactive”. GYFTRFSVFNNMEPLSCCMC showed an amyloid nucleation score of 1.38 ± 0.13. In the case of MRRTSCTVYTGKIRRIMYVV, the amyloid nucleation score is reported as “inactive”. In the case of KYCGVTNLA, the amyloid nucleation score is reported as “inactive”. In the case of YLDLFLWIREMLYYTGSLRV, the amyloid nucleation score is reported as “inactive”. In the case of FCLFDFGILG, the amyloid nucleation score is reported as “inactive”. For CKTHQVSYAYLC, the amyloid nucleation score was “inactive”. With TISIVTWDIVRSKCMRRKVL the amyloid nucleation score was “inactive”. For AVGLRRPLCMYF, the amyloid nucleation score was “inactive”. With EVFLIIIVKMVNGLSRESRC the amyloid nucleation score was “inactive”. With YYFRPVSPRDLSQVDCRTDL the amyloid nucleation score was “inactive”. For MDMLMLMGMALLIDSNVQAK, the amyloid nucleation score was “inactive”. For YVHWLGSALREGDWVLPSAL, the amyloid nucleation score was “inactive”. With DDGDVNDGRTWFIL the amyloid nucleation score was “inactive”. For HNVAYCSGGFCDPYSNFREG, the amyloid nucleation score was “inactive”. With SMCRTPILQPIAVQNVSMGR the amyloid nucleation score was “inactive”. For RWPLMMTFSATIVGYTVVWA, the amyloid nucleation score was “inactive”. For NKPCYLSSFPQCDHFFVWTD, the amyloid nucleation score was “inactive”. With MFWEGVTNSEMATKLHDKCI the amyloid nucleation score was “inactive”. With GCKYSATTAHCADKSVPVTG the amyloid nucleation score was “inactive”. For SRVLILM, the amyloid nucleation score was “inactive”. FYSLNSFSFYASRVITDNRV showed an amyloid nucleation score of 1.09 ± 0.13. With CKRCIPMRYYQL the amyloid nucleation score was “inactive”. With SRKVYEPKVPLAVSGCRMNV the amyloid nucleation score was “inactive”. For ILVSFVVGTNLLWGDASVRW, the amyloid nucleation score was 0.236 ± 0.48. In the case of NFRFPTNGNYGNYLKKESFV, the amyloid nucleation score is reported as “inactive”. Work on RLVWGCCLLDTCVVEQGSGV yielded an amyloid nucleation score of 2.78 ± 0.076. VFVKCWNVGSCIATDEYMSE showed an amyloid nucleation score of 2.2 ± 0.078. For VYVWSG, the amyloid nucleation score was “inactive”. FVASHLVVAKGVKASVRKFY gave an amyloid nucleation score of 1.31 ± 0.089. With RAITSVSYVWTGRCL the amyloid nucleation score was 0.803 ± 0.14. With TLDGLLRASMYSLIYWLVLM the amyloid nucleation score was “inactive”. In the case of CIRSS, the amyloid nucleation score is reported as “inactive”. In the case of VDETPSSHMSIPVMERVLCG, the amyloid nucleation score is reported as “inactive”. For RRSTYLIVFVG, the amyloid nucleation score was “inactive”. With SMRLVAWYW the amyloid nucleation score was “inactive”. LSMPMAAGCFKHMPCAA gave an amyloid nucleation score of -0.643 ± 1.7. For CESRP, the amyloid nucleation score was “inactive”. For CNVGPVSLFRFMGPLNYRDE, the amyloid nucleation score was “inactive”. With RCYVRFSRSRVVHIMLVYMP the amyloid nucleation score was “inactive”. Work on LICVYVWVHCLMNPYHAINR yielded an amyloid nucleation score of 0.199 ± 0.16. In the case of NWFRMFIGFNSCAIRRIIWD, the amyloid nucleation score is reported as “inactive”. With SERWGIESHNRNSNMRKTGW the amyloid nucleation score was “inactive”. For YILIL, the amyloid nucleation score was “inactive”. With LYVFLLNECSWRAPGASI the amyloid nucleation score was “inactive”. In the case of STPHAHIRSLFMSGYGILTN, the amyloid nucleation score is reported as “inactive”. In the case of HVCHKTYLSLKLHKLDFFYS, the amyloid nucleation score is reported as 0.391 ± 0.17. With VKFVCKAELLDLT the amyloid nucleation score was “inactive”. In the case of HTVLILVCAFKNAG, the amyloid nucleation score is reported as “inactive”. For WKYDKGNFRALVW, the amyloid nucleation score was “inactive”. In the case of LSVSIGVVGF, the amyloid nucleation score is reported as “inactive”. In the case of IMKCICVYVFINCHKWDVHA, the amyloid nucleation score is reported as “inactive”. In the case of CFGISLTESMSTSQNVVLDH, the amyloid nucleation score is reported as “inactive”. In the case of CRMDGIKGSEIRNADAWAIY, the amyloid nucleation score is reported as “inactive”. For LCSVVTSRAMSGSF, the amyloid nucleation score was “inactive”. For MESRGALYLSFRGRNCSSTQ, the amyloid nucleation score was 0.371 ± 0.19. In the case of RNSTMIYTQ, the amyloid nucleation score is reported as 2.24 ± 0.093. Work on VQPSFTMYMEFSCACVAMQL yielded an amyloid nucleation score of -0.423 ± 0.49. With SFTMMRSFSA the amyloid nucleation score was “inactive”. With GRCVEVCLIWLTKGDQQCSY the amyloid nucleation score was “inactive”. In the case of MKLVDLGVEIRLRRLAVSSV, the amyloid nucleation score is reported as “inactive”. For ENSIVADTGPAV, the amyloid nucleation score was “inactive”. In the case of IVYMDECLYQFNGPDVVPMF, the amyloid nucleation score is reported as “inactive”. With SVKKESCCD the amyloid nucleation score was “inactive”. In the case of GVLCMFGSTWRMFMEVGLHV, the amyloid nucleation score is reported as “inactive”. With NALTNSVKLFVLQTIVVYMR the amyloid nucleation score was “inactive”. In the case of GWNLGMAHSRRYGPVNISAW, the amyloid nucleation score is reported as “inactive”. For GKNSCCKLIVWDEVFGLKLC, the amyloid nucleation score was “inactive”. For IFSLLPVDILVTLY, the amyloid nucleation score was “inactive”. With RLNYWMTDDGCGRSCDTRVE the amyloid nucleation score was “inactive”. With WCTAAM the amyloid nucleation score was “inactive”. In the case of FCFRDIYKRSMSRSAYDSG, the amyloid nucleation score is reported as “inactive”. In the case of FGVSNRMWRKSRNLSGSPRA, the amyloid nucleation score is reported as “inactive”. Work on AKVQWAV yielded an amyloid nucleation score of -0.106 ± 0.43. For SGDPGGHQSRR, the amyloid nucleation score was “inactive”. Substance SSLPRPLVFRSLFVWREYIQ has an amyloid nucleation score of -0.06 ± 0.77. For LWHGIICFCFLAYSWGKSAV, the amyloid nucleation score was “inactive”. CLELK showed an amyloid nucleation score of -0.204 ± 1.1. With GVLMNHIELL the amyloid nucleation score was “inactive”. Work on EWQSYYSKQRIGSGPFQLFC yielded an amyloid nucleation score of 0.179 ± 0.3. In the case of SQGGFRNMWR, the amyloid nucleation score is reported as “inactive”. In the case of YLIYDRLSIQPDSSHHLVV, the amyloid nucleation score is reported as -0.124 ± 0.62. With SNHIDAVNHDGHSHPYHTTR the amyloid nucleation score was “inactive”. For DDCFIARAFLSLGLPELYLG, the amyloid nucleation score was “inactive”. Substance VDYKLFNFDGVCITTVFVHY has an amyloid nucleation score of 2.24 ± 0.095. For GSICYHGWTFKGKVKILNGI, the amyloid nucleation score was “inactive”. In the case of NTWILNC, the amyloid nucleation score is reported as “inactive”.
